Test results published in patent US20190077858A1 (KM BIOLOGICS, published 2019).

Legend:
[1] = molecular target: T1, human IL-1β (Funakoshi Corp.) (human, UniProt P01584 117-269, biotinylated (Biotin-PEAC5-maleimide or Biotin-AC5 Sulfo-OSu)); experiment: ELISA on biotinylated cytokine on streptavidin plates
T1 construct: also called biotinylated human IL-1β

[2] = molecular target: T2, human IL-33 (MBL Medical & Biological Laboratories, Co., Ltd.) (human, UniProt O95760 112-270, limits assumed, biotinylated (Biotin-PEAC5-maleimide or Biotin-AC5 Sulfo-OSu)); experiment: as above
T2 construct: also called biotinylated human IL-33
T2 sequence (looked up): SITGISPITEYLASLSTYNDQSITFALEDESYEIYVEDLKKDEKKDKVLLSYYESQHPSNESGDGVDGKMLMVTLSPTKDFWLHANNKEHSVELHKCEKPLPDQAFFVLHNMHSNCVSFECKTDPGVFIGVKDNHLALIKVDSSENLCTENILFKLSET

[3] = molecular target: T3, rat IL-18 (Acris Antibodies GmbH) (rat, UniProt P97636 37-194, limits assumed, biotinylated (Biotin-PEAC5-maleimide or Biotin-AC5 Sulfo-OSu)); experiment: as above
T3 construct: also called biotinylated rat IL-18
T3 sequence (looked up): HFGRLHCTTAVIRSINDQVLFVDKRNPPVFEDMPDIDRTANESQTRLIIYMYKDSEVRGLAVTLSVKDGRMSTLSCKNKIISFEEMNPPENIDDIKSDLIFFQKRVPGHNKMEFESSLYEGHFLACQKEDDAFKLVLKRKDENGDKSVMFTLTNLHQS

[4] = molecular target: T4, mouse IL-18 (MBL Medical & Biological Laboratories, Co., Ltd.) (mouse, UniProt P70380 36-192, biotinylated (Biotin-PEAC5-maleimide or Biotin-AC5 Sulfo-OSu)); experiment: as above
T4 construct: also called biotinylated mouse IL-18
T4 sequence (looked up): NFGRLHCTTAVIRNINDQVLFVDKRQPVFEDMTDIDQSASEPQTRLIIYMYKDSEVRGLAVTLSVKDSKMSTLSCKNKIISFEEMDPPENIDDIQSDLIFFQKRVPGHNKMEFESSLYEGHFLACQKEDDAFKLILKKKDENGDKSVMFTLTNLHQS

[5] = molecular target: T5, K53A variant of human IL-18 (human, UniProt Q14116 37-193, K53A, biotinylated); experiment: ELISA on immobilised biotinylated K53A IL-18, antibody at 1 µg/mL
T5 construct: On the precursor entry the residue at 53 may not be K; the numbering is likely that of mature IL-18
T5 sequence (looked up): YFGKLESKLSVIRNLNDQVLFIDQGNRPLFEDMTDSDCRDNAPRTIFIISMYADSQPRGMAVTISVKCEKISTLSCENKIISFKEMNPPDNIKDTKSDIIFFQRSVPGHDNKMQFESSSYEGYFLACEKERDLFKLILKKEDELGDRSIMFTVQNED
Description: Next, these human IL-18 proteins were biotinylated, then each diluted to 1 μg/mL with PBS (Sigma-Aldrich Corp.), added at 100 μL/well to Streptavidin plates (Nunc), and incubated at room temperature for 2 hours to immobilize them. After the immobilization, the plates were washed with PBST, and human IL-18BPa-hFc (R&D Systems, Inc.) or the IgG molecule-type 4A6D was prepared at 1 μg/mL with 1% BSA-PBS, added at 100 μL/well to the plates, and incubated at 37° C. After 1 hour, the plates were washed with PBST, and a detection antibody anti-hFc/HRP (Cosmo Bio Co., Ltd., The binding site) was added at 100 μL/well to the plates and incubated at 37° C. After 1 hour, the plates were washed with PBST, and TMB (Sigma-Aldrich Corp.) was added at 100 μL/well to the plates to develop color. After 30 minutes, the reaction was terminated with 1 M sulfuric acid, and the color values (O.D. 450 nm/650 nm) were measured using a microplate reader (Molecular Devices, Inc.).

B1: IgG molecule-type 4A6D (antibody, V domains shown)
VH: EVQLVESGGGLVQPGGSMRLSCTASGFTFDEYAMSWVRQAPGKGLEWVSGISTGGGGTYYADSVEGRFTISRDNSKNTLYLQMNSLRAEDTAVYYCAKPWLSGSRSGDFWGQGTLVTVSS
VL: QSALTQPASVSGSPGQSITISCTGTSSDVGGYNYVSWYQQHPGKAPKLLIYEVSHRPSGVSDRFSGSKSGNTASLTISGLQAEDEADYYCSSFTSSSSLYVFGTGTKLTVL
notes: detected with anti-hFc, so human constant regions; also called human anti-human IL-18 antibody 4A6D
[1]
  binding result: no binding
[2]
  binding result: no binding
[3]
  binding result: no binding
[4]
  binding result: no binding
[5]
  binding result: binds
